# Results: PMC2706102 (Nature structural & molecular biology, 2009)
# Target: the molecule itself
# Assay: HPLC sedimentation assay of aggregation
row,Protein,binding result
1,KKQQQQQQQQQQQQQQQQQQQQQQQQQQQQQQQQQQQPPPPPPPPPPKK [Q35P10],binds
2,KKQQQQQQQQQQQQQQQQQQQQQQQQQQQQQQQQQQQKK [Q35],binds
